sfGFP reporter fluorescence data for 14 variants are collected here from the supplement of paper PMC12783771.

To fix the notation:
B1: library; numbered along this chain (parent)
chain: MNIQIGELAKRTACPVVTIRFYEQEGLLPPPGRSRGNFRLYGEEHVERLQFIRHCRSLDMPLSDVRTLLSYRKRPDQDCGEVNMLLDEHIRQVESRIGALLELKHHLVELREACSGARPAQSCGILQGLSDCVCDTRGTTAHPSD

± gives the standard deviation of the averaged measurements.

Data set [1] covers variants of B1. The data set can be described thus: sfGFP reporter fluorescence (15 h) (µM FITC); higher = higher leak. The settings on record: library round: Round 0; ligand: none. The essentials:
(§1)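 Linear PbrR templates were made by PCR, normalized to 5 nM with an Echo, and expressed in BL21 Star (DE3) PANOx-SP extract with the pPbrR-sfGFP reporter plasmid and 30 μg/mL GamS. Echo-assembled 1 μL reactions held 1 µM lead chloride, 30 µM zinc acetate or no metal and were incubated 15 hr at 30 °C. Endpoint sfGFP fluorescence was read on a Synergy Neo2 and expressed as µM FITC using standard curves. Up to three biological replicates were run.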

The variants in data set [2] derive from B1. The data set can be described thus: sfGFP reporter fluorescence (15 h) (µM FITC); higher = stronger transcriptional activation. The settings on record: library round: Round 0. In short, it runs like this:
as §1

Take MNIQIGELAKRTACPVVTIRFYEQEGLLPPPGRSRGNFRLYGEEHVERLQFIRHCRSLDMPLSDVRTLLSYRKRPDQDCGEVNMLLDEHIRQVESRIGALLELLHHLVELREACSGARPAQSCGILQGLSDCVCDTRGTTAHPSD [K104L]: the sfGFP reporter fluorescence in data set [1] was 0.0592 ± 0.0049; in data set [2] (ligand: 1 µM Pb) it was 0.135 ± 0.03; in data set [2] (ligand: 30 µM Zn) it was 1.11 ± 0.054.
In the same order, the values of MNIQIGELAKRTACPVVTIRFYEQEGLLPPPGRSRGNFRLYGEEHVERLQFIRHCRSLDMPLSDVRTLLSYRKRPDQDCGEVNMLLDEHIRQVESRIGALLELRHHLVELREACSGARPAQSCGILQGLSDCVCDTRGTTAHPSD [K104R] are 0.0621 ± 0.006, 0.0958 ± 0.024 and 0.946 ± 0.16.
Regarding MNIQIGELAKRTACPVVTIRFYEQEGLLPPPGRSRGNFRLYGEEHVERLQFIRHCRSLDMPLSDVRTLLSYRKRPDQDCGEVNMLLDEHIRQVESRIGALLELQHHLVELREACSGARPAQSCGILQGLSDCVCDTRGTTAHPSD [K104Q], the sfGFP reporter fluorescence in data set [1] is 0.0601 ± 0.0026; in data set [2] (ligand: 1 µM Pb), 0.0832 ± 0.015; in data set [2] (ligand: 30 µM Zn), 0.901 ± 0.022.
The like results for MNIQIGELAKRTACPVVTIRFYEQEGLLPPPGRSRGNFRLYGEEHVERLQFIRHCRSLDMPLSDVRTLLSYRKRPDQDCGEVNMLLDEHIRQVESRIGALLELHHHLVELREACSGARPAQSCGILQGLSDCVCDTRGTTAHPSD [K104H] were, in that order, 0.0762 ± 0.0036, 0.189 ± 0.081 and 1.56 ± 0.38.
With MNIQIGELAKRTACPVVTIRFYEQEGLLPPPGRSRGNFRLYGEEHVERLQFIRHCRSLDMPLSDVRTLLSYRKRPDQDCGEVNMLLDEHIRQVESRIGALLELNHHLVELREACSGARPAQSCGILQGLSDCVCDTRGTTAHPSD [K104N], the sfGFP reporter fluorescence in data set [1] worked out at 0.0557 ± 0.0073; in data set [2] (ligand: 1 µM Pb), 0.0823 ± 0.025; in data set [2] (ligand: 30 µM Zn) it was 0.879 ± 0.15.
The like results for MNIQIGELAKRTACPVVTIRFYEQEGLLPPPGRSRGNFRLYGEEHVERLQFIRHCRSLDMPLSDVRTLLSYRKRPDQDCGEVNMLLDEHIRQVESRIGALLELMHHLVELREACSGARPAQSCGILQGLSDCVCDTRGTTAHPSD [K104M] were, in that order, 0.059 ± 0.0088, 0.111 ± 0.035 and 1.13 ± 0.15.
The like results for MNIQIGELAKRTACPVVTIRFYEQEGLLPPPGRSRGNFRLYGEEHVERLQFIRHCRSLDMPLSDVRTLLSYRKRPDQDCGEVNMLLDEHIRQVESRIGALLELTHHLVELREACSGARPAQSCGILQGLSDCVCDTRGTTAHPSD [K104T] were, in that order, 0.0619 ± 0.0021, 0.0925 ± 0.015 and 0.865 ± 0.13.
In the same order, the values of MNIQIGELAKRTACPVVTIRFYEQEGLLPPPGRSRGNFRLYGEEHVERLQFIRHCRSLDMPLSDVRTLLSYRKRPDQDCGEVNMLLDEHIRQVESRIGALLELFHHLVELREACSGARPAQSCGILQGLSDCVCDTRGTTAHPSD [K104F] are 0.0581 ± 0.011, 0.117 ± 0.029 and 0.889 ± 0.037.
MNIQIGELAKRTACPVVTIRFYEQEGLLPPPGRSRGNFRLYGEEHVERLQFIRHCRSLDMPLSDVRTLLSYRKRPDQDCGEVNMLLDEHIRQVESRIGALLELVHHLVELREACSGARPAQSCGILQGLSDCVCDTRGTTAHPSD [K104V]: the sfGFP reporter fluorescence in data set [1] was 0.0652 ± 0.0088; in data set [2] (ligand: 1 µM Pb), 0.173 ± 0.039; in data set [2] (ligand: 30 µM Zn), 1.35 ± 0.19.
As for MNIQIGELAKRTACPVVTIRFYEQEGLLPPPGRSRGNFRLYGEEHVERLQFIRHCRSLDMPLSDVRTLLSYRKRPDQDCGEVNMLLDEHIRQVESRIGALLELEHHLVELREACSGARPAQSCGILQGLSDCVCDTRGTTAHPSD [K104E], the sfGFP reporter fluorescence in data set [1] amounted to 0.0552 ± 0.0086; in data set [2] (ligand: 1 µM Pb) it was 0.0691 ± 0.015; in data set [2] (ligand: 30 µM Zn) it was 0.635 ± 0.12.
On to MNIQIGELAKRTACPVVTIRFYEQEGLLPPPGRSRGNFRLYGEEHVERLQFIRHCRSLDMPLSDVRTLLSYRKRPDQDCGEVNMLLDEHIRQVESRIGALLELIHHLVELREACSGARPAQSCGILQGLSDCVCDTRGTTAHPSD [K104I], for which the sfGFP reporter fluorescence was 0.0616 ± 0.0057 in data set [1], 0.165 ± 0.044 in data set [2] (ligand: 1 µM Pb) and 1.22 ± 0.053 in data set [2] (ligand: 30 µM Zn).
The like results for MNIQIGELAKRTACPVVTIRFYEQEGLLPPPGRSRGNFRLYGEEHVERLQFIRHCRSLDMPLSDVRTLLSYRKRPDQDCGEVNMLLDEHIRQVESRIGALLELGHHLVELREACSGARPAQSCGILQGLSDCVCDTRGTTAHPSD [K104G] were, in that order, 0.0526 ± 0.0075, 0.0524 ± 0.0057 and 0.22 ± 0.0034.
The like results for MNIQIGELAKRTACPVVTIRFYEQEGLLPPPGRSRGNFRLYGEEHVERLQFIRHCRSLDMPLSDVRTLLSYRKRPDQDCGEVNMLLDEHIRQVESRIGALLELPHHLVELREACSGARPAQSCGILQGLSDCVCDTRGTTAHPSD [K104P] were, in that order, 0.0509 ± 0.0073, 0.0544 ± 0.0054 and 0.08191 ± 0.00078.
The like results for MNIQIGELAKRTACPVVTIRFYEQEGLLPPPGRSRGNFRLYGEEHVERLQFIRHCRSLDMPLSDVRTLLSYRKRPDQDCGEVNMLLDEHIRQVESRIGALLELSHHLVELREACSGARPAQSCGILQGLSDCVCDTRGTTAHPSD [K104S] were, in that order, 0.0612 ± 0.0021, 0.092 ± 0.02 and 1 ± 0.052.
